Assay results published in patent publication US20200165613, “VIRUS LIKE PARTICLE” (The University of Leeds, published 2020).
Residue numbers refer to the chain shown, from its start.

What was measured:
[1] = biological target: T1, STNV coat protein wild-type (Satellite tobacco necrosis virus 1) (UniProt P03606); settings: QELS after SEC; Rh 9.1 nm
T1 sequence: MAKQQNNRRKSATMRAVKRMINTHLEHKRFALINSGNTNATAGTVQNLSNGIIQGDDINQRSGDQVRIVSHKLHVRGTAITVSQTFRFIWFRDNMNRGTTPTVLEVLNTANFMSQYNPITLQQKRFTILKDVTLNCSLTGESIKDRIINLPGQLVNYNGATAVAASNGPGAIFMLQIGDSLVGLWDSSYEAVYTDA

[2] = biological target: T2, STNV coat protein wild-type (Satellite tobacco necrosis virus 1, UniProt P03606 P03606:1-196); assay: smFCS; best assembly substrate; settings: chain copies: trimeric capsomer / T=1 capsid; label: 5' Alexa Fluor 488; five stem-loops
T2 sequence: T1 sequence

[3] = biological target: T2, STNV coat protein wild-type; assay: smFCS; more efficient than wild-type 127-mer; settings: chain copies: trimeric capsomer / T=1 capsid; label: 5' Alexa Fluor 488; five stem-loops
[4] = biological target: T2, STNV coat protein wild-type; assay: competition; unlabelled B3 displaces AF488-B3 at 100-fold excess; settings: chain copies: trimeric capsomer / T=1 capsid; stem-loop
[5] = biological target: T2, STNV coat protein wild-type; assay: smFCS; T=1 at lower CP than wild-type 127-mer; settings: chain copies: trimeric capsomer / T=1 capsid; label: 5' Alexa Fluor 488; five stem-loops
[6] = biological target: T2, STNV coat protein wild-type; assay: smFCS; T=1 but cooperativity lost; settings: chain copies: trimeric capsomer / T=1 capsid; label: 5' Alexa Fluor 488
[7] = biological target: T2, STNV coat protein wild-type; assay: smFCS; Rh collapse 20-30% then cooperative T=1 assembly; settings: chain copies: trimeric capsomer / T=1 capsid; label: 5' Alexa Fluor 488; five stem-loops
[8] = biological target: T2, STNV coat protein wild-type; assay: svAUC; T=1 capsids with similar efficiency to PS3; 2 mM Ca2+; settings: chain copies: trimeric capsomer / T=1 capsid; stem-loop
[9] = biological target: T2, STNV coat protein wild-type; assay: competition; competes with B3; T=1 peak in svAUC; settings: chain copies: trimeric capsomer / T=1 capsid; stem-loop
[10] = biological target: T2, STNV coat protein wild-type; assay: competition; competes; forms T=1; text states low nanomolar affinity for AUUA; settings: chain copies: trimeric capsomer / T=1 capsid; stem-loop

STNV-1 genome
activity (% relative VLP yield) [1]: 80

B1: Synthetic, stabilised PS1-5 (ssRNA)
RNA: GGGCUGCCCUCAAGGACCAGGGCAGAAAAGAGGAAAAGAAAAGUGACAGAACACUUAUAAGGAAAAAACGUACAAACGUUUUAAGGAAAAAAGGAAGCUGCAAUAGCGCAAGGAAUCCGAAAAUUCGGAAAGGAA
binding result [2]: binds

B2: All PS3 (ssRNA)
RNA: GGGCCCCGCAACAAUGCGGGGAAGGAAGGAAGGAAGAAAACGUACAAACGUUUUAAGGAACAACGCAACAAUGCGUUGAAGGAAGGAAGGAAGGGGCGUACAAACGCCCCAAGGAAUUUUGCAACAAUGCAAAAAAGGAA
binding result [3]: binds

ACAUGCAACAAUGCACAC (ssRNA) [B3 short / PS3 ACAA]
binding result [4]: binds

B3: Stable PS1-5 (ssRNA)
RNA: GGGCUGCCCUCAAGGACCAGGGCAGAAAAGAGGAAAAGAAAAGUGACAGAACACUUAUAAGGAACCACACAAGUGGAAGGAAAAAAGGAAGCUGCAAUAGCGCAAGGAAUCCGAAAAUUCGGAAAGGAA
binding result [5]: binds

B4: Unstable PS1-5 (ssRNA)
RNA: B3 RNA with G75A, G76U
binding result [6]: binds

B5: STNV-1 PS1-5 127-mer (ssRNA)
RNA: GAGUAAAGACAGGAAACUUUACUGACUAACAUGGCAAAACAACAGAACAACAGGCGAAAAUCCGCAACAAUGCGUGCAGUGAAGCGCAUGAUAAAUACACACUUGGAGCAUAAAAGGUUUGCACUGA
binding result [7]: binds

ACAUGCAAUGAUGCACAC (ssRNA) [B3 AUGA]
binding result [8]: binds

ACAUGCAAAAAUGCACAC (ssRNA) [B3 AAAA]
binding result [8]: binds

ACAUGCAUUUAUGCACAC (ssRNA) [B3 UUUA]
binding result [9]: binds

ACAUGCAAUUAUGCACAC (ssRNA) [B3 AUUA]
binding result [10]: binds

ACAUGCAAGUAUGCACAC (ssRNA) [B3 AGUA]
binding result [8]: binds

ACAUGCAAGGAUGCACAC (ssRNA) [B3 AGGA]
binding result [8]: binds
